Laboratory results published in article PMC2779898.

Assays:
Test in all cases: EMSA
[1] = target: T1, PF1488 (Pyrococcus furiosus, UniProt Q8U0U4 1-222)
T1 sequence: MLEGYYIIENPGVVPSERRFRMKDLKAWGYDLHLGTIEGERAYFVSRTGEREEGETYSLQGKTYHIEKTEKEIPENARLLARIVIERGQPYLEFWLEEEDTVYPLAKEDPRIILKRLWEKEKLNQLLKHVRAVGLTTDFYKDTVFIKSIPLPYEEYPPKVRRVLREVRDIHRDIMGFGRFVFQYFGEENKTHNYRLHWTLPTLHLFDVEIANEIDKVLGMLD

[2] = target: T2, PF0547 (Pyrococcus furiosus, UniProt Q8U3C3 1-448)
T2 sequence: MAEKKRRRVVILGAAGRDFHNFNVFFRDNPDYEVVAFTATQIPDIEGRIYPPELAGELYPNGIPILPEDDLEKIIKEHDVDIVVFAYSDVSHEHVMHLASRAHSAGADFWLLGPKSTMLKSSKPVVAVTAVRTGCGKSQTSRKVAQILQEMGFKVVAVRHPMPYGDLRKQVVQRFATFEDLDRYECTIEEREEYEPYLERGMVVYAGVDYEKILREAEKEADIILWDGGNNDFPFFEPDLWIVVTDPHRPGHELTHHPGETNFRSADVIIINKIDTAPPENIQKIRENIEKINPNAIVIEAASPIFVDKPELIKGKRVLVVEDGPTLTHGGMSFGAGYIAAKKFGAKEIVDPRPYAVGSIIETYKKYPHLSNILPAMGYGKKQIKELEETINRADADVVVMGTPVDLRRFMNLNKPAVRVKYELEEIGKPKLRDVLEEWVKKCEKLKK

[3] = target: T3, PF1142 (Pyrococcus furiosus, UniProt Q8U1R3 1-280)
T3 sequence: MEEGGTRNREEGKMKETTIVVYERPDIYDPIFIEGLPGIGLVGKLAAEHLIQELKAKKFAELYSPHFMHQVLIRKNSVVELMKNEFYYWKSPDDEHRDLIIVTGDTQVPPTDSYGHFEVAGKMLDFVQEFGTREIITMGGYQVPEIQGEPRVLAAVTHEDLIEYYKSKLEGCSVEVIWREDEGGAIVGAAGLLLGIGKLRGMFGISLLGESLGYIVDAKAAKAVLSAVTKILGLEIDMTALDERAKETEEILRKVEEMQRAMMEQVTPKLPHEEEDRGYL

[4] = target: T4, PF1913 (Pyrococcus furiosus, UniProt Q8TZS1 1-157)
T4 sequence: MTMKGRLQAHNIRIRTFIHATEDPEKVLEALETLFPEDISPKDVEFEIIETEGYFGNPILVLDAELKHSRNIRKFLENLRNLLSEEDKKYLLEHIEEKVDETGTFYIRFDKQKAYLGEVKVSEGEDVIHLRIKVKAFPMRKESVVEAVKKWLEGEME

Measured: binding result

GAAACAAGGAGAAAUGGUUCGUGUCCU (structured_RNA) [MPOR-27]
no binding: all assays above
